Series [1] concerns the target T1, Prm1 ZF domain (Pichia pastoris (Komagataella pastoris)) (UniProt C4R754).
T1 sequence: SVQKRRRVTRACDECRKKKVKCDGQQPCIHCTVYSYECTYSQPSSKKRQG
Put plainly: EMSA. As to conditions: EMSA: 50 mM Tris-HCl pH 8.0, 50 mM NaCl, 1 mM DTT, 0.05% NP-40, 50 ug/ml poly[d(I-C)], 5% glycerol, 30 min at 4 C; about 30 nM probe, 0-1 uM protein. …. In general terms: A gel shift assay detects complexes by their altered migration in electrophoresis.

Series [2] deals with T2, Mit1 ZF domain (Pichia pastoris (Komagataella pastoris)) (UniProt C4R5Q1).
T2 sequence: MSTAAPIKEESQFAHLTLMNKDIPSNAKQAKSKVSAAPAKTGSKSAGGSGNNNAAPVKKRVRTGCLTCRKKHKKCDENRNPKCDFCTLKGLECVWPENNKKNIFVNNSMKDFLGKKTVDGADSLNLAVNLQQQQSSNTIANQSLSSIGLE
Put plainly: EMSA. As to conditions: EMSA: 50 mM Tris-HCl pH 8.0, 50 mM NaCl, 1 mM DTT, 0.05% NP-40, 50 ug/ml poly[d(I-C)], 5% glycerol, 30 min at 4 C; about 30 nM probe, 0-1 uM protein. ….

Another series deals with T3, Mit1 ZF domain (Pichia pastoris (Komagataella pastoris), UniProt C4R5Q1 1-150).
T3 sequence: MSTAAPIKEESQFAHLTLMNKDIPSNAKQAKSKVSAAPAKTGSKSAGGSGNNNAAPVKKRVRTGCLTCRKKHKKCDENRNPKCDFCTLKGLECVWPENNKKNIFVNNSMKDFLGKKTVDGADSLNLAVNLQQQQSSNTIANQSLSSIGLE
Put plainly: EMSA; EMSA: 50 mM Tris-HCl pH 8.0, 50 mM NaCl, 1 mM DTT, 0.05% NP-40, 50 ug/ml poly[d(I-C)], 5% glycerol, 30 min at 4 C; about 30 nM probe, 0-1 uM protein. Footprinting: 350 ng probe in 40 ul, 30 min at 25 C. The following applies: protein: recombinant; tags: His6; label: Cy5.

In a further series the target is T4, Prm1 ZF domain (Pichia pastoris (Komagataella pastoris), UniProt C4R754 41-90).
T4 chain: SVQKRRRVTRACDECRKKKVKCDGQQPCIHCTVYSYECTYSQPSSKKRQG
The series is described as above. The following applies: protein: recombinant; tags: His6; label: Cy5.

In the case of “ACAGAATCTGGAGGTGTAAACACCGTCATTCCCTAATCTAAGTTTCTGTCCAGCCGTTTAGAAAGTTCCTCTTCGTCAATAAAGTTTAACTTTGAACGTGAGAGTTGAGCTAATCGGAAATACTCCCGAGAGCACACCCGAGCAGTGAAGCGGGGCATCATCAAAAGAATTAAGGGGTGCTGGGTGCGGATTGCGCGCAGTAGCTGGCATCAATGCCAAACGTAGAACTCATACATTCTCCTATCAGAATCATACGACATCGAGAGATACACCAGCCAGCACCACTTGAACACTCCCAAT (double strand) [PMIT1-A]”, the binding result in series [1] is reported as “binds”.

In the case of “ATTTTTGAGCATTCGTCAATCAATACCAAACAAGACAAACGGTATGCCGACTTTTGGAAGTTTCTTTTTGACCAACTGGCCGTTAGCATTTCAACGAACCAAACTTAGTTCATCTTGGATGAGATCACGCTTTTGTCATATTAGGTTCCAAGACAGCGTTTAAACTGT (double strand) [PAOX1 W3]”, the binding result in series [2] and in series [1] was “binds” each time. For “CAATTCCTTCTATTAGGCTACTAACACCATGACTTTATTAGCCTGTCTATCCTGGCCCCCCTGGCGAGGTTCATGTTTGTTTATTTCCGAATGCAACAAGCTCCGCATTACACCCGAACATCACTCCAGATGAGGGCTTTCTGAGTGTGGGGTCAAATAGTTTCATGTTCCCCAAATGGCCCAAAACTGACAGTTTAAACGCTGTCTTG (double strand) [PAOX1 W2]”, the binding entry was “binds” in series [2] and “no binding” in series [1]. For the molecule “GATAGCACTCTGGATTGATCAGAAACTTCATATCCGGAGACAGATACTTGTCTGTCTTGCATATGGGGCAATATTCTTCAGTATCCATCCGATGATTACGATTAGTATTAGGTTGATGAATAATCCATAATGGTCCCCTGATGGAATATGCTCGCGAAGA (double strand) [PPRM1-A]”, the binding result in series [1] is “binds”. On the same count and under the same terms, to “GTTCTTCCCGTTCCGCTCTATCCGATAAGAGGTTGGCTTCCGAGAAGGTTGGTAGTTGGAATGACGTACAAAATGTACAACAAAGCAGATGTTGTTTAGCGCGATCGCCCCAACCCCTCTTGTTGTTAGACAGTCTTATGCATATTTCGTAGACCCGGGACTGTACATTCGTCCGTCCTCAACCATTGGTCATTTGGTAC (double strand) [PMIT1-D]” belongs “binds”. Regarding “TTGCTGTCAAGTAGGGGTTAGAACAGTTAAATTTTGATCATGAACGTTAGGCTATCAGCAGTATTCCCACCAGAATCTTGGAAGCATACAATGTGGAGACAATGCATAATCATCCAAAAAGCGGGTGTTTCCCCATTTGCGTTTCGGCACAGGTGCACCGGGGTTCAGAAGCGATAGAGAGACTGCGCTAAGCATTAATGAGATTATTTTTGAGCATTCGTCAAT (double strand) [PAOX1 W4]”, the results for the binding entry in series [2] and in series [1] were “no binding” and “binds”, respectively.

B1: W2 delta A (dsDNA)
DNA 1: CAATTCATGACTTTATTAGCCTGTCTATCCTGGCCCCCCTGGCGAGGTTCATGTTTGTTTATTTCCGAATGCAACAAGCTCCGCATTACACCCGAACATCACTCCAGATGAGGGCTTTCTGAGTGTGGGGTCAAATAGTTTCATGTTCCCCAAATGGCCCAAAACTGACAGTTTAAACGCTGTCTTG
DNA 2: CAAGACAGCGTTTAAACTGTCAGTTTTGGGCCATTTGGGGAACATGAAACTATTTGACCCCACACTCAGAAAGCCCTCATCTGGAGTGATGTTCGGGTGTAATGCGGAGCTTGTTGCATTCGGAAATAAACAAACATGAACCTCGCCAGGGGGGCCAGGATAGACAGGCTAATAAAGTCATGAATTG
Take B1: the binding result with Mit1 ZF domain is given as “binds”.

B2: W3 delta B delta C (dsDNA)
DNA 1: ACAGTTTAAACGCTGTCTTGGAACCTAATATGACAAAAGCGTGACAAGATGAACTAAGTTTGGTTCGTTGAAATGGCCAGTTGGTCAAAAAGAAACTTCCAAAAGTCGGCATACCGTTTGTCTTGTTTGGTATTGATTGACGAATGCTCAAAAAT
DNA 2: ATTTTTGAGCATTCGTCAATCAATACCAAACAAGACAAACGGTATGCCGACTTTTGGAAGTTTCTTTTTGACCAACTGGCCATTTCAACGAACCAAACTTAGTTCATCTTGTCACGCTTTTGTCATATTAGGTTCCAAGACAGCGTTTAAACTGT
B2: in the series with Mit1 ZF domain, the binding result was “binds”.

B3: W2 delta A delta B (dsDNA)
DNA 1: CAATTCATGACTTCTGGCCCCCCTGGCGAGGTTCATGTTTGTTTATTTCCGAATGCAACAAGCTCCGCATTACACCCGAACATCACTCCAGATGAGGGCTTTCTGAGTGTGGGGTCAAATAGTTTCATGTTCCCCAAATGGCCCAAAACTGACAGTTTAAACGCTGTCTTG
DNA 2: CAAGACAGCGTTTAAACTGTCAGTTTTGGGCCATTTGGGGAACATGAAACTATTTGACCCCACACTCAGAAAGCCCTCATCTGGAGTGATGTTCGGGTGTAATGCGGAGCTTGTTGCATTCGGAAATAAACAAACATGAACCTCGCCAGGGGGGCCAGAAGTCATGAATTG
On to B3, for which the binding result with Mit1 ZF domain was “no binding”.

B4: W2 delta B (dsDNA)
DNA 1: CAATTCCTTCTATTAGGCTACTAACACCATGACTTCTGGCCCCCCTGGCGAGGTTCATGTTTGTTTATTTCCGAATGCAACAAGCTCCGCATTACACCCGAACATCACTCCAGATGAGGGCTTTCTGAGTGTGGGGTCAAATAGTTTCATGTTCCCCAAATGGCCCAAAACTGACAGTTTAAACGCTGTCTTG
DNA 2: CAAGACAGCGTTTAAACTGTCAGTTTTGGGCCATTTGGGGAACATGAAACTATTTGACCCCACACTCAGAAAGCCCTCATCTGGAGTGATGTTCGGGTGTAATGCGGAGCTTGTTGCATTCGGAAATAAACAAACATGAACCTCGCCAGGGGGGCCAGAAGTCATGGTGTTAGTAGCCTAATAGAAGGAATTG
Consider B4, for which the binding result with Mit1 ZF domain is recorded as “binds”.

B5: W3 delta D (dsDNA)
DNA 1: ACAGTTTAAACGCTGTCTTGGAACCTAATATGACAAAAGCGTGATCTCATCCAAGATGAACTAAGTTTGGTTCGTTGAAATGCTAACGGCCAGTTGGTCAAAAAGAAACTTCCGAATGCTCAAAAAT
DNA 2: ATTTTTGAGCATTCGGAAGTTTCTTTTTGACCAACTGGCCGTTAGCATTTCAACGAACCAAACTTAGTTCATCTTGGATGAGATCACGCTTTTGTCATATTAGGTTCCAAGACAGCGTTTAAACTGT
In the case of B5, the binding result with Mit1 ZF domain is on record as “binds”; with Prm1 ZF domain it was “no binding”.
